Test results: patent US20210388087A1 (Chugai, published 2021)

T1: Human CD3eg linker (human)
T1 construct: Single chain: epsilon and gamma subunits of human CD3 joined by a 29-mer linker, Flag-tag at the C-terminus; also called recombinant human CD3
T1 chain: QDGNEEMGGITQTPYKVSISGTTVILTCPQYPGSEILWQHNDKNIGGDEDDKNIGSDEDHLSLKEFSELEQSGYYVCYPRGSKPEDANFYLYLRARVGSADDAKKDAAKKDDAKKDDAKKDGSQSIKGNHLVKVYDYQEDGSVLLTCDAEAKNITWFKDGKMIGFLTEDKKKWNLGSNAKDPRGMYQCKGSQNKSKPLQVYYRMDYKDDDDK

B1: H183/L072 VH Y58W (antibody, name in Kabat numbering, V domains shown)
VH: QVQLVESGGGLVQPGRSLRLSCAASGFTFSNAWMHWVRQAPGKGLEWVAQIKDKGNAYAAWYAPSVKGRFTISRDDSKNSIYLQMNSLKTEDTAVYYCHYVHYASASTVLPAFGVDAWGQGTTVTVSS
VL: DIVMTQSPLSLPVTPGEPASISCQASQELVHMNRNTYLHWYQQKPGQAPRLLIYKVSNRFPGVPDRFSGSGSGTDFTLKISRVEAEDVGVYYCAQGTSVPFTFGQGTKLEIK
B2: H183/L072 VH Y59K (antibody, name in Kabat numbering, V domains shown)
VH: QVQLVESGGGLVQPGRSLRLSCAASGFTFSNAWMHWVRQAPGKGLEWVAQIKDKGNAYAAYKAPSVKGRFTISRDDSKNSIYLQMNSLKTEDTAVYYCHYVHYASASTVLPAFGVDAWGQGTTVTVSS
VL: DIVMTQSPLSLPVTPGEPASISCQASQELVHMNRNTYLHWYQQKPGQAPRLLIYKVSNRFPGVPDRFSGSGSGTDFTLKISRVEAEDVGVYYCAQGTSVPFTFGQGTKLEIK
B3: H183/L072 VH Y59F (antibody, name in Kabat numbering, V domains shown)
VH: QVQLVESGGGLVQPGRSLRLSCAASGFTFSNAWMHWVRQAPGKGLEWVAQIKDKGNAYAAYFAPSVKGRFTISRDDSKNSIYLQMNSLKTEDTAVYYCHYVHYASASTVLPAFGVDAWGQGTTVTVSS
VL: DIVMTQSPLSLPVTPGEPASISCQASQELVHMNRNTYLHWYQQKPGQAPRLLIYKVSNRFPGVPDRFSGSGSGTDFTLKISRVEAEDVGVYYCAQGTSVPFTFGQGTKLEIK
B4: H183/L072 VH Y59P (antibody, name in Kabat numbering, V domains shown)
VH: QVQLVESGGGLVQPGRSLRLSCAASGFTFSNAWMHWVRQAPGKGLEWVAQIKDKGNAYAAYPAPSVKGRFTISRDDSKNSIYLQMNSLKTEDTAVYYCHYVHYASASTVLPAFGVDAWGQGTTVTVSS
VL: DIVMTQSPLSLPVTPGEPASISCQASQELVHMNRNTYLHWYQQKPGQAPRLLIYKVSNRFPGVPDRFSGSGSGTDFTLKISRVEAEDVGVYYCAQGTSVPFTFGQGTKLEIK
B5: H183/L072 VH Y59N (antibody, name in Kabat numbering, V domains shown)
VH: QVQLVESGGGLVQPGRSLRLSCAASGFTFSNAWMHWVRQAPGKGLEWVAQIKDKGNAYAAYNAPSVKGRFTISRDDSKNSIYLQMNSLKTEDTAVYYCHYVHYASASTVLPAFGVDAWGQGTTVTVSS
VL: DIVMTQSPLSLPVTPGEPASISCQASQELVHMNRNTYLHWYQQKPGQAPRLLIYKVSNRFPGVPDRFSGSGSGTDFTLKISRVEAEDVGVYYCAQGTSVPFTFGQGTKLEIK
B6: H183/L072 VH Y59A (antibody, name in Kabat numbering, V domains shown)
VH: QVQLVESGGGLVQPGRSLRLSCAASGFTFSNAWMHWVRQAPGKGLEWVAQIKDKGNAYAAYAAPSVKGRFTISRDDSKNSIYLQMNSLKTEDTAVYYCHYVHYASASTVLPAFGVDAWGQGTTVTVSS
VL: DIVMTQSPLSLPVTPGEPASISCQASQELVHMNRNTYLHWYQQKPGQAPRLLIYKVSNRFPGVPDRFSGSGSGTDFTLKISRVEAEDVGVYYCAQGTSVPFTFGQGTKLEIK
B7: H183/L072 VH Y59R (antibody, name in Kabat numbering, V domains shown)
VH: QVQLVESGGGLVQPGRSLRLSCAASGFTFSNAWMHWVRQAPGKGLEWVAQIKDKGNAYAAYRAPSVKGRFTISRDDSKNSIYLQMNSLKTEDTAVYYCHYVHYASASTVLPAFGVDAWGQGTTVTVSS
VL: DIVMTQSPLSLPVTPGEPASISCQASQELVHMNRNTYLHWYQQKPGQAPRLLIYKVSNRFPGVPDRFSGSGSGTDFTLKISRVEAEDVGVYYCAQGTSVPFTFGQGTKLEIK
B8: H183/L072 VH Y59Q (antibody, name in Kabat numbering, V domains shown)
VH: QVQLVESGGGLVQPGRSLRLSCAASGFTFSNAWMHWVRQAPGKGLEWVAQIKDKGNAYAAYQAPSVKGRFTISRDDSKNSIYLQMNSLKTEDTAVYYCHYVHYASASTVLPAFGVDAWGQGTTVTVSS
VL: DIVMTQSPLSLPVTPGEPASISCQASQELVHMNRNTYLHWYQQKPGQAPRLLIYKVSNRFPGVPDRFSGSGSGTDFTLKISRVEAEDVGVYYCAQGTSVPFTFGQGTKLEIK
B9: H183/L072 VH Y59M (antibody, name in Kabat numbering, V domains shown)
VH: QVQLVESGGGLVQPGRSLRLSCAASGFTFSNAWMHWVRQAPGKGLEWVAQIKDKGNAYAAYMAPSVKGRFTISRDDSKNSIYLQMNSLKTEDTAVYYCHYVHYASASTVLPAFGVDAWGQGTTVTVSS
VL: DIVMTQSPLSLPVTPGEPASISCQASQELVHMNRNTYLHWYQQKPGQAPRLLIYKVSNRFPGVPDRFSGSGSGTDFTLKISRVEAEDVGVYYCAQGTSVPFTFGQGTKLEIK
B10: H183/L072 VH Y59H (antibody, name in Kabat numbering, V domains shown)
VH: QVQLVESGGGLVQPGRSLRLSCAASGFTFSNAWMHWVRQAPGKGLEWVAQIKDKGNAYAAYHAPSVKGRFTISRDDSKNSIYLQMNSLKTEDTAVYYCHYVHYASASTVLPAFGVDAWGQGTTVTVSS
VL: DIVMTQSPLSLPVTPGEPASISCQASQELVHMNRNTYLHWYQQKPGQAPRLLIYKVSNRFPGVPDRFSGSGSGTDFTLKISRVEAEDVGVYYCAQGTSVPFTFGQGTKLEIK
B11: H183/L072 VH Y59L (antibody, name in Kabat numbering, V domains shown)
VH: QVQLVESGGGLVQPGRSLRLSCAASGFTFSNAWMHWVRQAPGKGLEWVAQIKDKGNAYAAYLAPSVKGRFTISRDDSKNSIYLQMNSLKTEDTAVYYCHYVHYASASTVLPAFGVDAWGQGTTVTVSS
VL: DIVMTQSPLSLPVTPGEPASISCQASQELVHMNRNTYLHWYQQKPGQAPRLLIYKVSNRFPGVPDRFSGSGSGTDFTLKISRVEAEDVGVYYCAQGTSVPFTFGQGTKLEIK
B12: H183/L072 VH Y59E (antibody, name in Kabat numbering, V domains shown)
VH: QVQLVESGGGLVQPGRSLRLSCAASGFTFSNAWMHWVRQAPGKGLEWVAQIKDKGNAYAAYEAPSVKGRFTISRDDSKNSIYLQMNSLKTEDTAVYYCHYVHYASASTVLPAFGVDAWGQGTTVTVSS
VL: DIVMTQSPLSLPVTPGEPASISCQASQELVHMNRNTYLHWYQQKPGQAPRLLIYKVSNRFPGVPDRFSGSGSGTDFTLKISRVEAEDVGVYYCAQGTSVPFTFGQGTKLEIK
B13: H183/L072 VH Y59G (antibody, name in Kabat numbering, V domains shown)
VH: QVQLVESGGGLVQPGRSLRLSCAASGFTFSNAWMHWVRQAPGKGLEWVAQIKDKGNAYAAYGAPSVKGRFTISRDDSKNSIYLQMNSLKTEDTAVYYCHYVHYASASTVLPAFGVDAWGQGTTVTVSS
VL: DIVMTQSPLSLPVTPGEPASISCQASQELVHMNRNTYLHWYQQKPGQAPRLLIYKVSNRFPGVPDRFSGSGSGTDFTLKISRVEAEDVGVYYCAQGTSVPFTFGQGTKLEIK
B14: H183/L072 VH Y59D (antibody, name in Kabat numbering, V domains shown)
VH: QVQLVESGGGLVQPGRSLRLSCAASGFTFSNAWMHWVRQAPGKGLEWVAQIKDKGNAYAAYDAPSVKGRFTISRDDSKNSIYLQMNSLKTEDTAVYYCHYVHYASASTVLPAFGVDAWGQGTTVTVSS
VL: DIVMTQSPLSLPVTPGEPASISCQASQELVHMNRNTYLHWYQQKPGQAPRLLIYKVSNRFPGVPDRFSGSGSGTDFTLKISRVEAEDVGVYYCAQGTSVPFTFGQGTKLEIK
B15: H183/L072 VH Y59I (antibody, name in Kabat numbering, V domains shown)
VH: QVQLVESGGGLVQPGRSLRLSCAASGFTFSNAWMHWVRQAPGKGLEWVAQIKDKGNAYAAYIAPSVKGRFTISRDDSKNSIYLQMNSLKTEDTAVYYCHYVHYASASTVLPAFGVDAWGQGTTVTVSS
VL: DIVMTQSPLSLPVTPGEPASISCQASQELVHMNRNTYLHWYQQKPGQAPRLLIYKVSNRFPGVPDRFSGSGSGTDFTLKISRVEAEDVGVYYCAQGTSVPFTFGQGTKLEIK

Target: T1, Human CD3eg linker
Assay: Biacore SPR, vs template H183/L072

Going from B1 to B2, the “fold change of affinity” value rises from 0 fold to 1.3 fold.

Going from B3 to B4, the “fold change of affinity” value rises from 0.6 fold to 0.7 fold.

First: B5
Second: B6
The “fold change of affinity” value of the first is higher: 1.2 fold for the first, 1 fold for the second.

Going from B7 to B8, the “fold change of affinity” value falls from 1.3 fold to 1.1 fold.

Compared with B9, B10 is higher in “fold change of affinity” value: 1 fold for the first, 1.4 fold for the second.

Compared with B11, B12 is higher in “fold change of affinity” value: 1 fold for the first, 1.1 fold for the second.

B13 and B14 are the same in “fold change of affinity” value: 1.1 fold for the first, 1.1 fold for the second.

For B15, the “fold change of affinity” value was 0.9 fold.
